Source: US20210290678A1 (published 2021)

Tests used:
[1] = target: T1, human protein tyrosine kinase 7 (PTK7) (human, UniProt Q13308 31-1070); test: flow cytometry cell binding titration; HCC70 human cells; unit from dose axis
T1 chain: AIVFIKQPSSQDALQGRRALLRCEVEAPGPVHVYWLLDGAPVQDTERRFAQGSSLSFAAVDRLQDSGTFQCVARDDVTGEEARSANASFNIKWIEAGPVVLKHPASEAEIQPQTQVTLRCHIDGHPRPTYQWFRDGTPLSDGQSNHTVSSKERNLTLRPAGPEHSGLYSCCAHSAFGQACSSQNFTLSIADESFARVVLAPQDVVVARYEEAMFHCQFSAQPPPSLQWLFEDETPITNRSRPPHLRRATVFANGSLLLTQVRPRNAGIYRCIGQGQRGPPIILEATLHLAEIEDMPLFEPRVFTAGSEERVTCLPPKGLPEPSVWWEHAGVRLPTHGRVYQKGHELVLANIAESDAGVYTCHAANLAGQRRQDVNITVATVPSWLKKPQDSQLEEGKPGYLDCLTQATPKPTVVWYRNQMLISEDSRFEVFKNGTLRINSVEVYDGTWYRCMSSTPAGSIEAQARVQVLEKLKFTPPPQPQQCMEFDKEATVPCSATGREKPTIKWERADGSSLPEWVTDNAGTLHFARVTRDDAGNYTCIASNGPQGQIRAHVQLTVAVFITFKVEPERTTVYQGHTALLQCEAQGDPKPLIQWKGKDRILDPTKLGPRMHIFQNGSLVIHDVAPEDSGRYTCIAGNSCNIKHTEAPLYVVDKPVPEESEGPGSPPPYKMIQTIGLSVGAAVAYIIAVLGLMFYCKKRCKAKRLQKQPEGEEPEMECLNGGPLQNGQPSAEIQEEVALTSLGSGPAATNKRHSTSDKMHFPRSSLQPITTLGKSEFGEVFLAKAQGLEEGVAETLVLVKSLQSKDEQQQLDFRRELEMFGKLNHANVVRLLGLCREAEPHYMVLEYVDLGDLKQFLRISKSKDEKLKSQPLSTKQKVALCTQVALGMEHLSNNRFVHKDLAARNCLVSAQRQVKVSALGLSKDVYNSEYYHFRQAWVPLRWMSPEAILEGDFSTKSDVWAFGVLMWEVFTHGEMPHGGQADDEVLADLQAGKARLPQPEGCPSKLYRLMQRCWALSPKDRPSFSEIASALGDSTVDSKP

[2] = target: T2, murine PTK7 (murine, UniProt Q8BKG3 23-1062); test: flow cytometry cell binding titration; 3T3L1 murine cells; unit from dose axis
T2 chain: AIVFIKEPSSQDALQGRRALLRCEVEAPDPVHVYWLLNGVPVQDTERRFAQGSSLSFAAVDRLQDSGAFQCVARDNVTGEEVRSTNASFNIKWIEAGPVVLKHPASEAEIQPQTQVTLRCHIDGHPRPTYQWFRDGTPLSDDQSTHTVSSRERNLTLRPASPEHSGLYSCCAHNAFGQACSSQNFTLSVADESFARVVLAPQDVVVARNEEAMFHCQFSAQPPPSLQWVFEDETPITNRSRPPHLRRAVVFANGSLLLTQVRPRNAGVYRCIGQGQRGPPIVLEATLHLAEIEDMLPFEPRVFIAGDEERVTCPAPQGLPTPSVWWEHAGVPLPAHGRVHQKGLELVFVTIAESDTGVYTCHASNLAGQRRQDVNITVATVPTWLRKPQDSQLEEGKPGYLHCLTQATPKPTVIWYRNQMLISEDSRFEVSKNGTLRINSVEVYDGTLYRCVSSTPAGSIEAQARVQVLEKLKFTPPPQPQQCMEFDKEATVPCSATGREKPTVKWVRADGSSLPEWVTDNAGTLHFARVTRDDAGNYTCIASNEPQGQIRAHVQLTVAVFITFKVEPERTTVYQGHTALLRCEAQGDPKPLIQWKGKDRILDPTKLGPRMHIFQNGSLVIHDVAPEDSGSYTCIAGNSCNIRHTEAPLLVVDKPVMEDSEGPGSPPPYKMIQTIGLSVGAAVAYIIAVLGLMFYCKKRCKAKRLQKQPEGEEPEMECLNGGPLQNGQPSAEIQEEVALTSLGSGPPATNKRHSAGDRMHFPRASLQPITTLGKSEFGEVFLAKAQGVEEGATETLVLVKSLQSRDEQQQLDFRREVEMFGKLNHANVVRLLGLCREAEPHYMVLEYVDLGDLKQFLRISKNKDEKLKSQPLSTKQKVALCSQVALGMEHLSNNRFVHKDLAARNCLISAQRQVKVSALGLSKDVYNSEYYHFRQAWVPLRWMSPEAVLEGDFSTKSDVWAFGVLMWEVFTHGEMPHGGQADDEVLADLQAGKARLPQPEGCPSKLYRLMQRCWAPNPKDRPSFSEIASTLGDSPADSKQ

B1: CTX181 mAb (custom recombinant monoclonal anti-PTK7 antibody, Creative Biolabs) (antibody, V domains shown)
VH: QVQLVESGGGVVQPGRSLRLSCAASGFTFSSYGMHWVRQAPGKGLEWVAVIWDDGSNKYYVDSVKGRFTISRDNSKNTLYLQMNSLRAEDTAVYYCARDDYYGSGSFNSYYGTDVWGQGTTVTVSS
VL: EIVLTQSPATLSLSPGERATLSCRASQSVSIYLAWYQQKPGQAPRLLIYDASNRATGIPARFSGSGSGTDFTLTISSLEPEDFAVYYCQQRSNWPPFTFGPGTKVDIKR
[1]
  Kd: 1.53 nM
[2]
  Kd: 0.662 nM
